Measurements as given in patent US20100081621, “Crystal structure of the catalytic domain of the viral restriction factor APOBEC3G” (published 2010).

B1: 85-nt processivity ssDNA (ssDNA)
DNA: AAAGAGAAAGTGATACCCAAAGAGTAAAGTTAGATAGAGAGTGATACCCAAAGAGTAAAGTTAGTAAGATGTGTAAGTATGTTAA
modifications: [31 (FdT = fluorescein-dT, written as T)]

Assays:
APOBEC3G D316R/D317R = APOBEC3G D316R/D317R (Homo sapiens, UniProt Q9HC16 Q9HC16:1-384, D316R,D317R); test: FP; higher binding than wt; 5 mM MgCl2, 37 C; details: tags: Sf9, pAcG2T; label: internal fluorescein-dT
Protocol: Apo3G-DNA binding were monitored by changes in steady state fluorescence depolarization (rotational anisotropy). Reaction mixtures (70 μl), containing an F-labeled DNA ([…]) in buffer (50 mM HEPES, pH 7.3, 1 mM DTT and 5 mM MgCl₂) and varying concentration of 0 to 500 nM Apo3G, were incubated at 37° C. The sequence of the ssDNA is: tta gat gag tgt aa(FdT) gtg ata tat gtg tat. Rotational anisotropy was measured as described previously (Chelico et al., 2006). The fraction of DNA bound to protein was determined as described previously (Bertram et al., 2004).

APOBEC3G-CD2 = APOBEC3G-CD2 (Homo sapiens, UniProt Q9HC16 Q9HC16:197-380); test: about 2-fold decrease in processivity and polarity; details: tags: GST removed by PreScission protease; label: internal fluorescein-dT
Text: (§1) FIG. 1B is Apo3G processivity and 3′_{—}5′ deamination bias was characterized on an 85-nt internally F-labeled ssDNA with two CCC motifs 30-nt apart. Single deaminations of the 5′C and 3′C that are spaced by 30-nt on the ssDNA substrate are detected as the appearance of labeled 67- and 48-nt fragments, respectively; double deamination of both Cs on the same molecule results in 30-nt labeled fragment (5′C and 3′C). Substrate usage (%) is less than 15% to maintain single-hit kinetics. The ‘Processivity factor’ is defined as the ratio of the observed fraction of double deaminations (occurring at both 5′C and 3′C on the same molecule) to the predicted fraction of independent double deaminations (Chelico et al., 2006). […] The deamination bias is measured by the ratio of 5′C/3′C deaminations. Deamination patterns are shown using full length Apo3G (lane 2) and Apo3G-CD2 (lanes 3, 4). As a control, no Apo3G or Apo3G-CD2 enzyme was added in lane 1.
(§2) Apo3G (0.024-μM) was allowed to react with 500 nM FdT incorporated ssDNA for […] and subsequently treated with UDG and resolved on 16% UREA PAGE for analysis as described previously¹⁰. Specific activity, measured as fmoles substrate deaminated per pg enzyme per minute, was calculated from the percent deamination of an ssDNA substrate over a range of enzyme concentrations. […]

[1] = target: APOBEC3G full-length (E. coli) (Homo sapiens, UniProt Q9HC16 Q9HC16:1-384); test: processive deamination with bias to the 5' CCC; details: tags: GST, pGEX-6P1, E. coli; label: internal fluorescein-dT
Text: as §1, §2

Chain of APOBEC3G full-length (E. coli) (Q9HC16 whole entry, one chain of several): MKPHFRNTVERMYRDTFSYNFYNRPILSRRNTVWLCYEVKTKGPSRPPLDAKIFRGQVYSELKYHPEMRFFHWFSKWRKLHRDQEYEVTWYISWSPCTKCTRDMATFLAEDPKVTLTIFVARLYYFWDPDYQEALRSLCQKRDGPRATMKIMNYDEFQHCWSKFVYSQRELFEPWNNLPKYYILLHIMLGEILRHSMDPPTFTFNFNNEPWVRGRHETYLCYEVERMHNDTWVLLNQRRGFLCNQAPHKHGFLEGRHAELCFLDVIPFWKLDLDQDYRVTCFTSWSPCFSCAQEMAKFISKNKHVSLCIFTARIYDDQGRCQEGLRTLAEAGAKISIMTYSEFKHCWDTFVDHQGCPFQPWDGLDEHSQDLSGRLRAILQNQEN
Chain of APOBEC3G-CD2 (Q9HC16 197-380, one chain of several): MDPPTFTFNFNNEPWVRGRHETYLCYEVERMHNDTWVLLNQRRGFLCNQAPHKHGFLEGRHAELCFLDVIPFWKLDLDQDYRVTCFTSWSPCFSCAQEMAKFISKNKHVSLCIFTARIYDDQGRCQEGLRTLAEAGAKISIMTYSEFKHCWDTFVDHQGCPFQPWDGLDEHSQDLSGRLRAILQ
Chain of APOBEC3G D316R/D317R (Q9HC16 whole entry D316R/D317R, one chain of several): as the sequence (Q9HC16 whole entry, one chain of several) above, with D316R, D317R counted along it

Binder | binding signal (APOBEC3G D316R/D317R) | binding result (APOBEC3G-CD2) | binding result [1]
TTAGATGAGTGTAATGTGATATATGTGTAT (ssDNA, [15 (fluorescein-dT)]) [anisotropy ssDNA] | 2 fold of wt | – | –
B1 | – | binds | binds
